In article PMC2928814, “Host Imprints on Bacterial Genomes—Rapid, Divergent Evolution in Individual Patients”:

Target: T1, Fur (ferric uptake regulator) (Escherichia coli (strain of the fur …, UniProt P0A9A9 1-148))
T1 sequence: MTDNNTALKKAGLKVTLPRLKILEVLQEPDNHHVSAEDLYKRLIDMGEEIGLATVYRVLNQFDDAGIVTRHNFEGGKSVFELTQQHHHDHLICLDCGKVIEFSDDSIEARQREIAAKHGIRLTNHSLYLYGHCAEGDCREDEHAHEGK
Test: EMSA; dimer and tetramer complexes; EMSA as in cited ref 52, binding buffer not given; annealing buffer 10 mM Tris-HCl, 50 mM NaCl, 1 mM EDTA
Conditions: protein: recombinant; tags: IMPACT system (intein tag, self-cleaved; no residual tag stated); chain copies: 4; label: Cy3 at 3' end of S3 as printed; blunt

B1: fecIR Fur box, E. coli 83972 (dsDNA)
DNA 1: TCCAATTGTAATGATAACCATTCTCATATTAATATGACTACGTGA
DNA 2: TCACGTAGTCATATTAATATGAGAATGGTTATCATTACAATTGGA
B1: binds.
